In one assay the target is CD47 (Mus musculus) (UniProt Q61735). Conditions: cited from earlier work.
The target in a further assay is CD47 (Homo sapiens) (UniProt Q08722). To be noted: cited from earlier work.
For assay [1], the target named is human CD47 on cells (human (endogenous in HCT116, MDA-MB-468, OVCAR3, HUVEC, C5120)) (UniProt Q08722).

Sequence of SIRPα-Fc (P78324 31-373): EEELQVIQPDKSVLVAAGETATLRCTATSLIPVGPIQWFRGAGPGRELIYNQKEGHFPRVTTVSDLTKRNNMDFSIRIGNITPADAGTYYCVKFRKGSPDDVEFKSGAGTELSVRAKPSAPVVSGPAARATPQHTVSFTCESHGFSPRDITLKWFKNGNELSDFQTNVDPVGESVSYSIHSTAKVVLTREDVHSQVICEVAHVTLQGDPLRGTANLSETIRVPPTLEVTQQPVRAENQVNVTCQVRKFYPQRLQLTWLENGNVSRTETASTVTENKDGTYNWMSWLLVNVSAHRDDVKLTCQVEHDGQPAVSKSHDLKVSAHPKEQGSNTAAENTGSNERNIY
Sequence of UniProt Q61735 (Q61735 19-303): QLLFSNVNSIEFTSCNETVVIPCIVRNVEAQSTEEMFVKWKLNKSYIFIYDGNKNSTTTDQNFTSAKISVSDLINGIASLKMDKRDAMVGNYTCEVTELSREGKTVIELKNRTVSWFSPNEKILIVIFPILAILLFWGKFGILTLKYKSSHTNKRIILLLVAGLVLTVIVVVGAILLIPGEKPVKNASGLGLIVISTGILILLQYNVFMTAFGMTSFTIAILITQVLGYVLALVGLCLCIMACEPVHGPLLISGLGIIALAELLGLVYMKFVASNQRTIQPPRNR

With SIRPα-Fc (from UniProt P78324), the Kd is 58 nM in the assay with CD47 (Mus musculus) and 1 nM with CD47 (Homo sapiens).
Substance SIRPα-Fc fusion protein gave a macrophage ADCP on-chip of MDA-MB-468 cells, fold increase over the background; AdV delivery of SIRPα-Fc alone (blocks the CD47-SIRPα axis) in assay [1] of 1.7 fold.

Usually Kd stands for the equilibrium constant for the complex coming apart.

Source of the values: PMC13469128.
